Experimental data reported in publication PMC3814152 (Molecular Biology of the Cell, 2013).

Target: the molecule itself
Test: SEC

B1: Mzt1-His6 (natural protein)
chain: MSESTKETIEVLYEIGTLLGTELDKTTLSLCISLCENNVHPEAIAQIIREIRMAQEQTVDTEPS
Q: How did the “stoichiometry N” value turn out when B1 was run?
A: ~12
